Laboratory results taken from paper PMC9087215.

Assays:
[1] = target: Klebsiella pneumoniae PriA helicase (Klebsiella pneumoniae subsp. pneumoniae MGH 78578) (UniProt A6TGC5)
[2] = target: PaSSB(F60A) (Pseudomonas aeruginosa, UniProt P40947 1-165, F60A); assay: EMSA
[3] = target: PaSSB(W40A) (Pseudomonas aeruginosa, UniProt P40947 1-165, W40A); assay: EMSA
[4] = target: PaSSB(W88A) (Pseudomonas aeruginosa, UniProt P40947 1-165, W88A); assay: EMSA
[5] = target: PaSSB (Pseudomonas aeruginosa, UniProt P40947 1-165); assay: EMSA
[6] = target: PaSSB(W54A) (Pseudomonas aeruginosa, UniProt P40947 1-165, W54A); assay: EMSA

| Molecule | ATPase activity of KpPriA with 10 μM KpSSBn-StSSBc, fold stimulation [1] | apparent K (half saturation) [2] | apparent K (half saturation) [3] | apparent K (half saturation) [4] | apparent K (half saturation) [5] | apparent K (half saturation) [6] |
| --- | --- | --- | --- | --- | --- | --- |
| KpSSBn-StSSBc chimeric protein (from UniProt P0A2F6 92-176) | 14 fold | – | – | – | – | – |
| TTTTTTTTTTTTTTTTTTTTTTTTTTTTTTTTTTTTTTTTTTTTTTTTTT (ssDNA) [dT50] | – | 569 ± 24 nM | 434 ± 19 nM | 1230 ± 61 nM | 355 ± 21 nM | 522 ± 26 nM |
